From paper PMC7948726

Target: 14-3-3β (UniProt P31946)
Test: anti-FLAG co-IP, anti-HA blot
Details: reference: FLAG-DYRK1A wild type; sites S529

Substance: DYRK1A (from UniProt Q63470) FLAG-DYRK1A-S529A
- binding against the reference: weaker
